Test results taken from patent US20260116987A1 (Gilead, published 2026).
Changes are numbered by the printed parent chain.

T1: Human CCR4 expressed on CHO-S cells (human, UniProt P51679 1-360)
T1 construct: whole, on cells; also called CCR4-expressing CHO-S cells
T1 sequence (looked up): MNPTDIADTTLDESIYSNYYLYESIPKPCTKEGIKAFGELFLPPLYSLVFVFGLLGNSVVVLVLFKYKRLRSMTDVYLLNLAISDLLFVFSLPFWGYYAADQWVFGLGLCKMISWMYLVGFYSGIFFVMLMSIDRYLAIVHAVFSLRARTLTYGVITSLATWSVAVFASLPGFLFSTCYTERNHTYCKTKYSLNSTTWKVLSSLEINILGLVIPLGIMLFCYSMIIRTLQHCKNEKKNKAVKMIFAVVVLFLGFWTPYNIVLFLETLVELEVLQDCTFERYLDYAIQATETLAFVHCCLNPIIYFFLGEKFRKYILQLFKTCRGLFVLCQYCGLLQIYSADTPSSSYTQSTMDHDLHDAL

B1: 1-K17 (mouse hybridoma antibody) (antibody, mouse IgG1, kappa)
heavy: QVQLQQPGAELVKPGASVKMSCKASGYTFTSYNMHWVKQTPGQGLEWIGAIYPGNGDTSYNQKFKGKATLTADKSSSTAYMHLSSLTSEDSAVYYCARKGGTPFAYWGQGTLLTVSAAKTTPPSVYPLAPGSAAQTNSMVTLGCLVKGYFPEPVTVTWNSGSLSSGVHTFPAVLESDLYTLSSSVTVPSSPRPSETVTCNVAHPASSTKVDKKIVPRDCGCKPCICTVPEVSSVFIFPPKPKDVLTITLTPKVTCVVVDISKDDPEVQFSWFVDDVEVHTAQTQPREEQFNSTFRSVSELPIMHQDWLNGKEFKCRVNSAAFPAPIEKTISKTKGRPKAPQVYTIPPPKEQMAKDKVSLTCMITDFFPEDITVEWQWNGQPAENYKNTQPIMNTNGSYFVYSKLNVQKSNWEAGNTFTCSVLHEGLHNHHTEKSLSHSPG
light: DVVMTQTPLSLPVSLGDQASISCRSSQSLVHSNGNTYLYWYLQKPGQSPKLLIYKVSNRFSGVPDRFSGSGSGTDFTLKISRVEAEDLGVYFCSQSTHVPYTFGGGTKLEIKRADAAPTVSIFPPSSEQLTSGGASVVCFLNNFYPKDINVKWKIDGSERQNGVLNSWTDQDSKDSTYSMSSTLTLTKDEYERHNSYTCEATHKTSTSPIVKSFNRNEC
B2: 19-O07 chimera (human IgG1) (antibody)
heavy: not shown
light: DVVMTQTPLTLSVTIGQPASISCKSSQSLLYSNGKTYLNWLLQRPGQSPKRLIYLVSKLDSGVPDRFTGSGSGTDFTLKISRVEAEDLGVYYCVQGTRFPWTFGGGTNLEIKRTVAAPSVFIFPPSDEQLKSGTASVVCLLNNFYPREAKVQWKVDNALQSGNSQESVTEQDSKDSTYSLSSTLTLSKADYEKHKVYACEVTHQGLSSPVTKSFNRGEC
notes: also called 19-007; 19-O07 chimeric antibody
B3: 6-B09 (mouse hybridoma antibody) (antibody, mouse IgG2a, kappa)
heavy: QVQLKESGPGLVAPSQSLSITCTVSGFSLARYDISWIRQPPGKGLEWLGVIWTGGGTNYNSAFMSRLSISKDNSKSQVFLKMNGLQTDDTAIYYCVSIRYDETYWGQGTLVTVSAAKTTAPSVYPLAPVCGDTTGSSVTLGCLVKGYFPEPVTLTWNSGSLSSGVHTFPAVLQSDLYTLSSSVTVTSSTWPSQSITCNVAHPASSTKVDKKIEPRGPTIKPCPPCKCPAPNLLGGPSVFIFPPKIKDVLMISLSPIVTCVVVDVSEDDPDVQISWFVNNVEVHTAQTQTHREDYNSTLRVVSALPIQHQDWMSGKEFKCKVNNKDLPAPIERTISKPKGSVRAPQVYVLPPPEEEMTKKQVTLTCMVTDFMPEDIYVEWTNNGKTELNYKNTEPVLDSDGSYFMYSKLRVEKKNWVERNSYSCSVVHEGLHNHHTTKSFSRTPG
light: QIVLTQSPAIMSASPGEKVTITCSASSSVIYMHWFQQKPGTSPKLWIYATSNLASGVPARFSGSGSGTSYSLTISRMEAEDAATYYCQQRSSYPLTFGAGTKLELKRADAAPTVSIFPPSSEQLTSGGASVVCFLNNFYPKDINVKWKIDGSERQNGVLNSWTDQDSKDSTYSMSSTLTLTKDEYERHNSYTCEATHKTSTSPIVKSFNRNEC
B4: 13-E16 (mouse hybridoma antibody) (antibody, mouse IgG2a, kappa)
heavy: EVQLVETGGGLVQPKGSLKLSCAASGFTFSTNAMNWVRQAPGKGLEWIARIRSKSNNYATHYADSVKDRFTISRDDSQSILHLQMNNLKNEDTAMYYCVRDSHYYVSTYVGLAWFAYWGQGTLVTVSAAKTTAPSVYPLAPVCGDTTGSSVTLGCLVKGYFPEPVTLTWNSGSLSSGVHTFPAVLQSDLYTLSSSVTVTSSTWPSQSITCNVAHPASSTKVDKKIEPRGPTIKPCPPCKCPAPNLLGGPSVFIFPPKIKDVLMISLSPIVTCVVVDVSEDDPDVQISWFVNNVEVHTAQTQTHREDYNSTLRVVSALPIQHQDWMSGKEFKCKVNNKDLPAPIERTISKPKGSVRAPQVYVLPPPEEEMTKKQVTLTCMVTDFMPEDIYVEWTNNGKTELNYKNTEPVLDSDGSYFMYSKLRVEKKNWVERNSYSCSVVHEGLHNHHTTKSFSRTPG
light: B3 light with I30S, A49S, S71F, L95Y, A99G, L105R
B5: 1-K16 chimera (human IgG1) (antibody)
heavy: not shown
light: DIVMTQAAPSVPVTPGESVSISCRSSKSLLHSNGNTYLYWFLQRPGQSPQLLIYRMSNLASGVPDRFSGSGSGTAFTLRISRVEAEDVGVYYCMQHLEYPFTFGAGTKLELKRTVAAPSVFIFPPSDEQLKSGTASVVCLLNNFYPREAKVQWKVDNALQSGNSQESVTEQDSKDSTYSLSSTLTLSKADYEKHKVYACEVTHQGLSSPVTKSFNRGEC
notes: also called 1-K16 chimeric antibody
B6: 7B16-H1.001 (CDR H1 swapped mutant of 7-B16) (antibody, V domains shown)
VH: EVQLVESGGGLVQPKGSLKLSCAASGFTFSGSAMHWVRQAPGKGLEWVARIRSKSNNYATYYADSVKDRFTISRDDSQSMLYLQMNNLKTEDTAMYYCVRGLLRYRFFDVWGAGTTVTVSS
VL: DIVMTQAEPSVPVTPGESISISCRSSKSLLHSNGNTYLYWFLQRPGQSPQLLIYRMSNLASGVPDRFSGSGSGTAFTLRISRVEAEDVGVYYCMQHLEYPFTFGGGTKLEIKR
notes: also called CDR swapped variant H1
B7: 13-E16 chimera (human IgG1) (antibody)
heavy: not shown
light: QIVLTQSPAIMSASPGEKVTITCSASSSVSYMHWFQQKPGTSPKLWIYSTSNLASGVPARFSGSGSGTSYFLTISRMEAEDAATYYCQQRSSYPYTFGGGTKLERKRTVAAPSVFIFPPSDEQLKSGTASVVCLLNNFYPREAKVQWKVDNALQSGNSQESVTEQDSKDSTYSLSSTLTLSKADYEKHKVYACEVTHQGLSSPVTKSFNRGEC
notes: also called 13-E16 chimeric antibody
B8: 6-B09 chimera (human IgG1) (antibody)
heavy: not shown
light: B7 light with S30I, S49A, F71S, Y95L, G99A, R105L
notes: also called 6-B09 chimeric antibody

How the values were obtained:
[1] = molecular target: T1, Human CCR4 expressed on CHO-S cells; experiment: flow cytometry (PE-A), human CCR4-expressing CHO-S cells against parental CHO-S cells; antibody concentration not given
[2] = molecular target: T2, Human CCR8 (C-C chemokine receptor type 8) expressed on CHO-S cells (human, UniProt P51685 1-355); experiment: flow cytometry epitope binning, tandem format, human CCR8-overexpressing cells; competitor 1-K16
T2 construct: also called huCCR8; human CCR8-expressing CHO-S cells
Method: (§1) A subset of antibodies against human CCR8 were epitope binned using flow cytometry method in tandem format. Briefly, one set of antibodies was biotinylated. Human CCR8-overexpressing cells were incubated at 4° C., with the non-biotinylated antibodies at 10 μg/mL for 1 hour, then without washing the biotinylated antibodies were added at 10 μg/mL. After a further 1-hour incubation, cells were washed three times and then stained with streptavidin-phycoerythrin (PE-strep) secondary antibody for 30 minutes. Binding competition was determined by detecting PE by flow cytometry. The response values were normalized as the % of the maximum binding of the individual antibody.

[3] = molecular target: T2, Human CCR8 (C-C chemokine receptor type …); experiment: flow cytometry epitope binning, tandem format, human CCR8-overexpressing cells; competitor 19-O07
Method: as §1

[4] = molecular target: T3, Human CCR8 on human CCR8-overexpression lipoparticles (human, UniProt P51685 1-355); experiment: sequential format ELISA on human CCR8-overexpression lipoparticles; competitor 7-B16
[5] = molecular target: T3, Human CCR8 on human CCR8-overexpression …; experiment: sequential format ELISA on human CCR8-overexpression lipoparticles; competitor 1-K16
[6] = molecular target: T2, Human CCR8 (C-C chemokine receptor type …); experiment: flow cytometry epitope binning, tandem format, human CCR8-overexpressing cells; competitor 1-K17
Method: as §1

[7] = molecular target: T3, Human CCR8 on human CCR8-overexpression …; experiment: sequential format ELISA on human CCR8-overexpression lipoparticles; competitor 1-K17
[8] = molecular target: T2, Human CCR8 (C-C chemokine receptor type …); experiment: flow cytometry epitope binning, tandem format, human CCR8-overexpressing cells; competitor 6-B09
Method: as §1

[9] = molecular target: T3, Human CCR8 on human CCR8-overexpression …; experiment: sequential format ELISA on human CCR8-overexpression lipoparticles; competitor 19-O07
[10] = molecular target: T3, Human CCR8 on human CCR8-overexpression …; experiment: sequential format ELISA on human CCR8-overexpression lipoparticles; competitor 6-B09
[11] = molecular target: T1, Human CCR4 expressed on CHO-S cells; experiment: flow cytometry
[12] = molecular target: T2, Human CCR8 (C-C chemokine receptor type …); experiment: flow cytometry epitope binning, tandem format, human CCR8-overexpressing cells; competitor 7-B16
Method: as §1

[13] = molecular target: T2, Human CCR8 (C-C chemokine receptor type …); experiment: cell-based or functional assay
[14] = molecular target: T2, Human CCR8 (C-C chemokine receptor type …); experiment: flow cytometry on CHO cells expressing CCR8, EC50 column
Method: CCR8 binding was determined using flow cytometry according to the same methods used in Example 4, Briefly, antibodies were screened for specific binding to human CCR8 by flow cytometry using human CCR8-overexpressing and parental CHO—S cell line. Antibodies specifically binding to human CCR8 were also tested for binding to CCR4 by flow cytometry.

[15] = molecular target: T2, Human CCR8 (C-C chemokine receptor type …); experiment: cell-based or functional assay; remark: listed apart in the source

T2 sequence (P51685 whole entry): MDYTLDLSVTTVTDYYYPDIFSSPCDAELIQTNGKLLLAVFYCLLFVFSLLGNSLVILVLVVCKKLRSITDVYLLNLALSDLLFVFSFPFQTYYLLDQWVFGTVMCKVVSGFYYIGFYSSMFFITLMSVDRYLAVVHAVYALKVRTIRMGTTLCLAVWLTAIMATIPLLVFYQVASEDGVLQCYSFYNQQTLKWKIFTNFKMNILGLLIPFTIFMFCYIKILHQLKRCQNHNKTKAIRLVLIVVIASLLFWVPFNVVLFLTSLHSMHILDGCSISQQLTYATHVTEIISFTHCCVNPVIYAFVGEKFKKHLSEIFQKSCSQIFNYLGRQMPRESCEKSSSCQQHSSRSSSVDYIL
T3 sequence (P51685 whole entry): as above

Binder | binding result [1] | % of the maximum binding [2] | % of the maximum binding [3] | ELISA epitope binning signal [4] | ELISA epitope binning signal [5] | % of the maximum binding [6] | ELISA epitope binning signal [7] | % of the maximum binding [8] | ELISA epitope binning signal [9] | ELISA epitope binning signal [10] | binding result [11] | % of the maximum binding [12] | IC50, antagonist activity in DiscoverX PathHunter beta-arrestin assay with 13.7 nM human CCL1 [13] | binding result [14] | EC50 of ADCC function (Promega ADCC reporter bioassay) [15]
B1 | no binding |  |  |  |  |  |  |  |  |  |  |  |  |  | 
B2 |  | 109% | 54% | 1.02 | 0.882 | 91% | 0.784 | 39% | 0.817 | 0.679 | no binding | 108% | 995 µg/mL |  | 
B3 | no binding |  |  |  |  |  |  |  |  |  |  |  |  |  | 
B4 | no binding |  |  |  |  |  |  |  |  |  |  |  |  |  | 
B5 |  | 31% | 149% | 0.758 | 0.264 | 32% | 0.794 | 167% | 1.49 | 0.964 | no binding | 88% | 4.55 µg/mL |  | 
B6 |  |  |  |  |  |  |  |  |  |  |  |  |  | no binding | 
B7 |  |  |  |  |  |  |  |  |  |  | no binding |  | 12.6 µg/mL |  | 0.0549 µg/mL
B8 |  | 102% | 32% | 0.776 | 0.8 | 94% | 0.82 | 44% | 0.577 | 0.512 | no binding | 89% |  |  | 
